From patent US20170210813A1 (Regeneron, published 2017)
Blank lines part the entries; values can stand above or below the binder they belong to.

What was measured:
[1] = molecular target: T1, PDGFR-beta extracellular domain construct D1-D3 (human); test: SPR, mAb captured, construct at 50nM
T1 construct: also called D1-3
T1 chain: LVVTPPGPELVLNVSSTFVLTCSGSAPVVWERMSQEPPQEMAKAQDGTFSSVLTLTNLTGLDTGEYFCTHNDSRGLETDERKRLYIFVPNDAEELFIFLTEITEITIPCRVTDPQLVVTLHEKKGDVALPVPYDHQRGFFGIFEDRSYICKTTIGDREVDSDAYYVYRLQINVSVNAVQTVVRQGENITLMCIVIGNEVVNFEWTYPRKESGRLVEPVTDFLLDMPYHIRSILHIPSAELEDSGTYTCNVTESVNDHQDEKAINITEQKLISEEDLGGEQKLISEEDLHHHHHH
Description: (§1) Four different anti-PDGFR-beta antibodies were tested for binding to the various constructs by surface plasmon resonance (Biacore). Briefly, 150-200 RU's of anti-PDGFR beta antibody was captured via an anti-human Fc CM5 chip. Next, the individual domain constructs, or full-length PDGFR beta, was applied over the antibody-bound surface at a concentration of 50nM. The ability of the various antibodies to bind to the various domain constructs was measured. (−)=No binding observed; (+)=Binding observed; ND=Not determined.

[2] = molecular target: T2, PDGFR-beta extracellular domain construct D1-D4 (human); test: SPR, mAb captured, construct at 50nM
T2 construct: also called D1-4
T2 chain: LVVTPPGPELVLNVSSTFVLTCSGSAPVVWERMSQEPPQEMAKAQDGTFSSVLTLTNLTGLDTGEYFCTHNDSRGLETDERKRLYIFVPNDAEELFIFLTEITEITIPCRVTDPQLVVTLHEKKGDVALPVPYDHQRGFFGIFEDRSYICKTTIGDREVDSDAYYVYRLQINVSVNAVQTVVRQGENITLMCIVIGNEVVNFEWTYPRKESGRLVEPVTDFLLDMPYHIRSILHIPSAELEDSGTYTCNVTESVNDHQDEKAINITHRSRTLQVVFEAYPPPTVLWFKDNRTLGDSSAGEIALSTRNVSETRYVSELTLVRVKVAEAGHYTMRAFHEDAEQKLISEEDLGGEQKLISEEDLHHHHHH
Description: as §1

binding result [1]: binds | binding result [2]: binds
B1: H4H3374N (antibody, human IgG4, V domains shown)
VH: QLQLQESGPGLVKPSETLSLTCTVSGGSITSSSYYWGWIRQPPGKGLEWIGSIYYRGSTNYNPSLKSRVTISVDSSKNQFYLKVSSVTAVDTAVYYCARQNGAARPSWFDPWGQGTLVTVSS
VL: EIVLTQSPDTISLSPGERATLSCRASQSISSIYLAWYQQKPGQAPRLLIYGASSRVTGIPDRFSVSGSGTDFTLTISRLEPEDFAVYYCQHYGISPFTFGPGTKVDIR
notes: human IgG4 Fc (H4H prefix)

binding result [1]: binds | binding result [2]: binds
B2: H4H3094P (antibody, human IgG4, V domains shown)
VH: EVQLVESGGGLVQPGGSLRLSCAASGFTFSSYWMSWVRQAPGKGLEWVANMNQDGSETHYVDSVKGRLSISRDNAKKSLFLHMNSLRAEDTAVYFCARDLVPPRQDDYYYYFGMDVWGHGTTVTVSS
VL: DIQMTQSPSTLSASVGDRVTITCRASQSISDWLAWYQQKPGKAPKLLIFKASTLESGVPSRFSGSGSGTEFTLTISSLQPDDFATYYCQQYNSYSRTFGQGTKVEIK
notes: also called H4H3394P
